According to publication PMC7367873, “Dissecting the sequence determinants for dephosphorylation by the catalytic subunits of phosphatases PP1 and PP2A” (Nature Communications, 2020):
Each block holds one molecule with its values, some of them ahead of it.

Experiments:
[1] = system: GFP-14-3-3β and its binding proteins; assay: GFP-14-3-3β co-IP with LC-MS/MS label-free quantification, untreated versus PP1c-treated; parameters: species or system human; details: label-free quantification, 3 replicates each
GFP-14-3-3β = GFP-14-3-3β co-IP with LC-MS/MS, untreated GFP-14-3-3β versus GFP control (14-3-3 interactome); assay type: binding, human; details: label-free quantification, 3 replicates each
[2] = GFP-14-3-3β co-IP LC-MS/MS, PP1 vs untreated, student's t-test
[3] = GFP-14-3-3β co-IP LC-MS/MS, untreated vs GFP, student's t-test

B1: WDR36 (protein, UniProt Q8NI36 1-895, looked up)
WD repeat-containing protein …: MERASERRTASALFAGFRALGLFSNDIPHVVRFSALKRRFYVTTCVGKSFHTYDVQKLSLVAVSNSVPQDICCMAADGRLVFAAYGNVFSAFARNKEIVHTFKGHKAEIHFLQPFGDHIISVDTDGILIIWHIYSEEEYLQLTFDKSVFKISAILHPSTYLNKILLGSEQGSLQLWNVKSNKLLYTFPGWKVGVTALQQAPAVDVVAIGLMSGQVIIHNIKFNETLMKFRQDWGPITSISFRTDGHPVMAAGSPCGHIGLWDLEDKKLINQMRNAHSTAIAGLTFLHREPLLVTNGADNALRIWIFDGPTGEGRLLRFRMGHSAPLTNIRYYGQNGQQILSASQDGTLQSFSTVHEKFNKSLGHGLINKKRVKRKGLQNTMSVRLPPITKFAAEEARESDWDGIIACHQGKLSCSTWNYQKSTIGAYFLKPKELKKDDITATAVDITSCGNFAVIGLSSGTVDVYNMQSGIHRGSFGKDQAHKGSVRGVAVDGLNQLTVTTGSEGLLKFWNFKNKILIHSVSLSSSPNIMLLHRDSGILGLALDDFSISVLDIETRKIVREFSGHQGQINDMAFSPDGRWLISAAMDCSIRTWDLPSGCLIDCFLLDSAPLNVSMSPTGDFLATSHVDHLGIYLWSNISLYSVVSLRPLPADYVPSIVMLPGTCQTQDVEVSEETVEPSDELIEYDSPEQLNEQLVTLSLLPESRWKNLLNLDVIKKKNKPKEPPKVPKSAPFFIPTIPGLVPRYAAPEQNNDPQQSKVVNLGVLAQKSDFCLKLEEGLVNNKYDTALNLLKESGPSGIETELRSLSPDCGGSIEVMQSFLKMIGMMLDRKRDFELAQAYLALFLKLHLKMLPSEPVLLEEITNLSSQVEENWTHLQSLFNQSMCILNYLKSALL
- Difference (log2), PP1 vs untreated [1, 2]: -0.2458 log2
- Difference (log2), untreated vs GFP (GFP-14-3-3β; [3]): 1.174 log2

B6: ILF3 (protein, UniProt Q12906 1-894, looked up)
Interleukin enhancer-binding …: MRPMRIFVNDDRHVMAKHSSVYPTQEELEAVQNMVSHTERALKAVSDWIDEQEKGSSEQAESDNMDVPPEDDSKEGAGEQKTEHMTRTLRGVMRVGLVAKGLLLKGDLDLELVLLCKEKPTTALLDKVADNLAIQLAAVTEDKYEILQSVDDAAIVIKNTKEPPLSLTIHLTSPVVREEMEKVLAGETLSVNDPPDVLDRQKCLAALASLRHAKWFQARANGLKSCVIVIRVLRDLCTRVPTWGPLRGWPLELLCEKSIGTANRPMGAGEALRRVLECLASGIVMPDGSGIYDPCEKEATDAIGHLDRQQREDITQSAQHALRLAAFGQLHKVLGMDPLPSKMPKKPKNENPVDYTVQIPPSTTYAITPMKRPMEEDGEEKSPSKKKKKIQKKEEKAEPPQAMNALMRLNQLKPGLQYKLVSQTGPVHAPIFTMSVEVDGNSFEASGPSKKTAKLHVAVKVLQDMGLPTGAEGRDSSKGEDSAEETEAKPAVVAPAPVVEAVSTPSAAFPSDATAEQGPILTKHGKNPVMELNEKRRGLKYELISETGGSHDKRFVMEVEVDGQKFQGAGSNKKVAKAYAALAALEKLFPDTPLALDANKKKRAPVPVRGGPKFAAKPHNPGFGMGGPMHNEVPPPPNLRGRGRGGSIRGRGRGRGFGGANHGGYMNAGAGYGSYGYGGNSATAGYSQFYSNGGHSGNASGGGGGGGGGSSGYGSYYQGDNYNSPVPPKHAGKKQPHGGQQKPSYGSGYQSHQGQQQSYNQSPYSNYGPPQGKQKGYNHGQGSYSYSNSYNSPGGGGGSDYNYESKFNYSGSGGRSGGNSYGSGGASYNPGSHGGYGGGSGGGSSYQGKQGGYSQSNYNSPGSGQNYSGPPSSYQSSQGGYGRNADHSMNYQYR
- Difference (log2), PP1 vs untreated [1, 2]: -0.2231 log2
- Difference (log2), untreated vs GFP (GFP-14-3-3β; [3]): 3.029 log2

B7: TFCP2 (protein, UniProt Q12800 1-502, looked up)
Alpha-globin transcription …: MAWALKLPLADEVIESGLVQDFDASLSGIGQELGAGAYSMSDVLALPIFKQEESSLPPDNENKILPFQYVLCAATSPAVKLHDETLTYLNQGQSYEIRMLDNRKLGELPEINGKLVKSIFRVVFHDRRLQYTEHQQLEGWRWNRPGDRILDIDIPMSVGIIDPRANPTQLNTVEFLWDPAKRTSVFIQVHCISTEFTMRKHGGEKGVPFRVQIDTFKENENGEYTEHLHSASCQIKVFKPKGADRKQKTDREKMEKRTPHEKEKYQPSYETTILTECSPWPEITYVNNSPSPGFNSSHSSFSLGEGNGSPNHQPEPPPPVTDNLLPTTTPQEAQQWLHRNRFSTFTRLFTNFSGADLLKLTRDDVIQICGPADGIRLFNALKGRMVRPRLTIYVCQESLQLREQQQQQQQQQQKHEDGDSNGTFFVYHAIYLEELTAVELTEKIAQLFSISPCQISQIYKQGPTGIHVLISDEMIQNFQEEACFILDTMKAETNDSYHIILK
- Difference (log2), PP1 vs untreated [1, 2]: -0.2131 log2
- Difference (log2), untreated vs GFP (GFP-14-3-3β; [3]): 0.6477 log2

Continued, in another order:

- Difference (log2), PP1 vs untreated [1, 2]: -0.251 log2
B2: CANX (protein, UniProt P27824 21-592, looked up)
Calnexin: HDGHDDDVIDIEDDLDDVIEEVEDSKPDTTAPPSSPKVTYKAPVPTGEVYFADSFDRGTLSGWILSKAKKDDTDDEIAKYDGKWEVEEMKESKLPGDKGLVLMSRAKHHAISAKLNKPFLFDTKPLIVQYEVNFQNGIECGGAYVKLLSKTPELNLDQFHDKTPYTIMFGPDKCGEDYKLHFIFRHKNPKTGIYEEKHAKRPDADLKTYFTDKKTHLYTLILNPDNSFEILVDQSVVNSGNLLNDMTPPVNPSREIEDPEDRKPEDWDERPKIPDPEAVKPDDWDEDAPAKIPDEEATKPEGWLDDEPEYVPDPDAEKPEDWDEDMDGEWEAPQIANPRCESAPGCGVWQRPVIDNPNYKGKWKPPMIDNPSYQGIWKPRKIPNPDFFEDLEPFRMTPFSAIGLELWSMTSDIFFDNFIICADRRIVDDWANDGWGLKKAADGAAEPGVVGQMIEAAEERPWLWVVYILTVALPVFLVILFCCSGKKQTSGMEYKKTDAPQPDVKEEEEEKEEEKDKGDEEEEGEEKLEEKQKSDAEEDGGTVSQEEEDRKPKAEEDEILNRSPRNRKPRRE
- Difference (log2), untreated vs GFP (GFP-14-3-3β; [3]): 0.347 log2

- Difference (log2), PP1 vs untreated [1, 2]: -0.2324 log2
B3: NAT10 (protein, UniProt Q9H0A0 1-1025, looked up)
RNA cytidine acetyltransferase: MHRKKVDNRIRILIENGVAERQRSLFVVVGDRGKDQVVILHHMLSKATVKARPSVLWCYKKELGFSSHRKKRMRQLQKKIKNGTLNIKQDDPFELFIAATNIRYCYYNETHKILGNTFGMCVLQDFEALTPNLLARTVETVEGGGLVVILLRTMNSLKQLYTVTMDVHSRYRTEAHQDVVGRFNERFILSLASCKKCLVIDDQLNILPISSHVATMEALPPQTPDESLGPSDLELRELKESLQDTQPVGVLVDCCKTLDQAKAVLKFIEGISEKTLRSTVALTAARGRGKSAALGLAIAGAVAFGYSNIFVTSPSPDNLHTLFEFVFKGFDALQYQEHLDYEIIQSLNPEFNKAVIRVNVFREHRQTIQYIHPADAVKLGQAELVVIDEAAAIPLPLVKSLLGPYLVFMASTINGYEGTGRSLSLKLIQQLRQQSAQSQVSTTAENKTTTTARLASARTLYEVSLQESIRYAPGDAVEKWLNDLLCLDCLNITRIVSGCPLPEACELYYVNRDTLFCYHKASEVFLQRLMALYVASHYKNSPNDLQMLSDAPAHHLFCLLPPVPPTQNALPEVLAVIQVCLEGEISRQSILNSLSRGKKASGDLIPWTVSEQFQDPDFGGLSGGRVVRIAVHPDYQGMGYGSRALQLLQMYYEGRFPCLEEKVLETPQEIHTVSSEAVSLLEEVITPRKDLPPLLLKLNERPAERLDYLGVSYGLTPRLLKFWKRAGFVPVYLRQTPNDLTGEHSCIMLKTLTDEDEADQGGWLAAFWKDFRRRFLALLSYQFSTFSPSLALNIIQNRNMGKPAQPALSREELEALFLPYDLKRLEMYSRNMVDYHLIMDMIPAISRIYFLNQLGDLALSAAQSALLLGIGLQHKSVDQLEKEIELPSGQLMGLFNRIIRKVVKLFNEVQEKAIEEQMVAAKDVVMEPTMKTLSDDLDEAAKEFQEKHKKEVGKLKSMDLSEYIIRGDDEEWNEVLNKAGPNASIISLKSDKKRKLEAKQEPKQSKKLKNRETKNKKDMKLKRKK
- Difference (log2), untreated vs GFP (GFP-14-3-3β; [3]): 2.262 log2

- Difference (log2), PP1 vs untreated [1, 2]: -0.2137 log2
B4: GEMIN8 (protein, UniProt Q9NWZ8 1-242, looked up)
Gem-associated protein 8: MAAVKASTSKATRPWYSHPVYARYWQHYHQAMAWMQSHHNAYRKAVESCFNLPWYLPSALLPQSSYDNEAAYPQSFYDHHVAWQDYPCSSSHFRRSGQHPRYSSRIQASTKEDQALSKEEEMETESDAEVECDLSNMEITEELRQYFAETERHREERRRQQQLDAERLDSYVNADHDLYCNTRRSVEAPTERPGERRQAEMKRLYGDSAAKIQAMEAAVQLSFDKHCDRKQPKYWPVIPLKF
- Difference (log2), untreated vs GFP (GFP-14-3-3β; [3]): 0.1049 log2

- Difference (log2), PP1 vs untreated ([1]; log2 difference, pairwise comparison PP1 vs untreated): 1.725
B5: FAM120A (protein, UniProt Q9NZB2 1-1118, looked up)
Constitutive coactivator of …: MGVQGFQDYIEKHCPSAVVPVELQKLARGSLVGGGRQRPPQTPLRLLVDADNCLHRLYGGFYTDWVSGGQWNHMLGYLAALAKACFGGNIELFVFFNGALEKARLHEWVKRQGNERQTAQQIVSHVQNKGTPPPKVWFLPPVCMAHCIRLALIRFHVKVAQSIEDHHQEVIGFCRENGFHGLVAYDSDYALCNIPYYFSAHALKLSRNGKSLTTSQYLMHEVAKQLDLNPNRFPIFAALLGNHILPDEDLASFHWSLLGPEHPLASLKVRAHQLVLPPCDVVIKAVADYVRNIQDTSDLDAIAKDVFQHSQSRTDDKVIRFKRAIGYYSATSKPMSFHPPHYLAARPGPFGMPGMVPPHVPPQMLNIPQTSLQAKPVAPQVPSPGGAPGQGPYPYSLSEPAPLTLDTSGKNLTEQNSYSNIPHEGKHTPLYERSSPINPAQSGSPNHVDSAYFPGSSTSSSSDNDEGSGGATNHISGNKIGWEKTGSHSEPQARGDPGDQTKAEGSSTASSGSQLAEGKGSQMGTVQPIPCLLSMPTRNHMDITTPPLPPVAPEVLRVAEHRHKKGLMYPYIFHVLTKGEIKIAVSIEDEANKDLPPAALLYRPVRQYVYGVLFSLAESRKKTERLAFRKNRLPPEFSPVIIKEWAAYKGKSPQTPELVEALAFREWTCPNLKRLWLGKAVEDKNRRMRAFLACMRSDTPAMLNPANVPTHLMVLCCVLRYMVQWPGARILRRQELDAFLAQALSPKLYEPDQLQELKIENLDPRGIQLSALFMSGVDMALFANDACGQPIPWEHCCPWMYFDGKLFQSKLLKASREKTPLIDLCDGQADQAAKVEKMRQSVLEGLSFSRQSHTLPFPPPPALPFYPASAYPRHFGPVPPSQGRGRGFAGVCGFGGPYGETVATGPYRAFRVAAASGHCGAFSGSDSSRTSKSQGGVQPIPSQGGKLEIAGTVVGHWAGSRRGRGGRGPFPLQVVSVGGPARGRPRGVISTPVIRTFGRGGRYYGRGYKNQAAIQGRPPYAASAEEVAKELKSKSGESKSSAMSSDGSLAENGVMAEEKPAPQMNGSTGDARAPSHSESALNNDSKTCNTNPHLNALSTDSACRREAALEAAVLNKEE
- Difference (log2), untreated vs GFP (GFP-14-3-3β; log2 difference, pairwise comparison untreated vs GFP): -0.07006
